Patent publication US20260327294 (published 2026)
Like-named read-outs stand apart in the source and are kept apart here.

Assays:
RSV A2 pre-F [1] = target: RSV A2 pre-F (RSV A2); experiment: ELISA
RSV A2 pre-F [2] = target: RSV A2 pre-F (RSV A2); experiment: BLI
RSV A2 pre-F [3] = target: RSV A2 pre-F (RSV A2); experiment: BLI; remark: listed apart in the source
RSV A2 pre-F [4] = target: RSV A2 pre-F (RSV A2); experiment: ELISA; remark: listed apart in the source

| Binder | EC50 (RSV A2 pre-F [1]) | Kd (RSV A2 pre-F [2]) | Kd (RSV A2 pre-F [3]) | EC50 (RSV A2 pre-F [4]) |
| --- | --- | --- | --- | --- |
| MEDI8897 (antibody, V domains shown) VH: QVQLVQSGAEVKKPGSSVMVSCQASGGLLEDYIINWVRQAPGQGPEWMGGIIPVLGTVHYGPKFQGRVTITADESTDTAYMELSSLRSEDTAMYYCATETALVVSETYLPHYFDNWGQGTLVTVSS VL: DIQMTQSPSSLSAAVGDRVTITCQASQDIVNYLNWYQQKPGKAPKLLIYVASNLETGVPSRFSGSGSGTDFSLTISSLQPEDVATYYCQQYDNLPLTFGGGTKVEIKR | 0.0313 µg/mL | 122 pM | 379 pM | 0.0146 µg/mL |
| F6-47 (antibody, V domains shown) VH: QVQLLESGGNVVQPGRSLSLSCVASGFALKSYAVHWVRQAPGKGLEWVAFVPYDAVTNYYADSVKGRFTVSRDISKNTVNLHMNRLMGEDTAVYFCARGATSGSYSFLGYNYYMDVWGRGTAVTVSS VL: QSALTQPASVSGSPGQPITISCTGTSSDVGAYTYVSWYQHHPGKAPKLILFDVTDRPSGVSHRFSGSKSGNTASLTISGLQSEDEAEYYCSSYTDRNTIVFGGGTTLTVL |  | 343 pM |  | 0.00998 µg/mL |
| F6-37 (antibody, V domains shown) VH: QVHLVESGGNVVHPGTSLSLSCAGSGFTFKSHAIHWVRQAPGRGLEWVAFVPYDGATNYYADSLKGRFTVSRDNSRNTVSLHMNRLEGQDTAVYFCARGATSGSYSFLGYNYYMDVWGRGTTVTVSS VL: QSALTQPASVSGSPGQSITISCTGTSSDVGAYTYVSWYQQLPGKAPKLLLFDVTDRPSGVAHRFSGSKSGNTASLTISGLQAEDEAEYYCSSYTDRNTLVFGGGTKLTVL |  | 680 pM |  | 0.0117 µg/mL |
| F6-56 (antibody, V domains shown) VH: QVQLVESGGDVVRPGTSLRLSCAASGFAFRSHALHWVRQAPGKGLEWVSVISYDGGHTNSADSVKGRFTVSRDNSKNILFLQMNSLRIEDTAVYFCARSEGSYRSWPGYFYYMDVWGNGTTVTVSS VL: QSALTQPASVSGSPGQSITISCIGTSSDVGGYYYVSWYQQHPGKAPKLIIFDVSDRPSGVSSRFSGSQSGNTASLTISGLQAEDEADYYCNSYSSSTTPYVFGSGTKVTVL |  | 381 pM |  | 0.0141 µg/mL |
| F6-49 (antibody, V domains shown) VH: QVQLVESGGGVVLPGTSLTLSCAASGFTFRHYAIHWVRQTPGGGLEWVAALPYDGSTKYFAESVKDRFTIYRDNSQAAAFLHMSSLTPGDTALYYCARSTYSYEYSFLGYFYYMDVWGRGTSVTVSS VL: QSALTQPASVSGSPGQSISISCTGTSRDVGAYTYISWSQQHTGQAPKLLIYDVSERPSGVSDRFSGSKTGDTASLAISGLQAEDEAVYYCSSYTDSNTVVFGGGTKVTVL |  | 713 pM |  | 0.0104 µg/mL |
